{"source": "patent US20240294607", "test_system": "T1, His-Tag-FGG (recombinant human fibrinogen gamma chain with N-terminal His-tag, produced in E. coli)", "T1 sequence": "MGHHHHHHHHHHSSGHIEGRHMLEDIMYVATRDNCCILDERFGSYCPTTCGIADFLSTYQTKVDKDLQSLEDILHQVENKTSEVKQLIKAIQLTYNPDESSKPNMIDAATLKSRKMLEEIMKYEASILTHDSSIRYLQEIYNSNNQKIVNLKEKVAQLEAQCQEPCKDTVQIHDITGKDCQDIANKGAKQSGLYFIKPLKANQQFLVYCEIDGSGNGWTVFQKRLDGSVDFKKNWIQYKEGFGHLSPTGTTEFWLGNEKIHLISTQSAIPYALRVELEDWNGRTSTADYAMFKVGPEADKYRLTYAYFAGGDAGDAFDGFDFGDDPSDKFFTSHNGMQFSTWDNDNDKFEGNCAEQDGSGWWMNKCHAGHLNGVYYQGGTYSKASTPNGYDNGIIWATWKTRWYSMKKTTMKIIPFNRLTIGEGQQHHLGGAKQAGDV", "data": [{"substance": "factor XIII", "values": [{"measurement": "SDS-PAGE analysis of polymerization (crosslinking) of FGG with factor XIII", "result": "recombinant FGG can be crosslinked by factor XIII and produces dimers (about 100 kDa) and higher molecular weight FGG structures"}]}]}
